Reference: PMC7604486

Biological target: mouse Rae1–Nup98^GLEBS complex (tags removed) (mouse) (UniProt Q8C570)
Test: SEC

## MHV-68 ORF10 (wild type, full-length, no tag) (natural protein)
  stoichiometry N: 1
